*1 amine or outer side, *2 acyl side, *3 side chain or, on linkers, in order; H or OH if unused. Bridges are numbered along the chain shown (N, C = ends). Primed or numbered codes have the meaning given here. Where no end group is shown, it is not given here. [ ]: non-standard residue; d: D form. Sar10″ = ten sarcosine residues, CN(CC(=O)N(C)CC(=O)N(C)CC(=O)N(C)CC(=O)N(C)CC(=O)[*:2])C(=O)CN(C)C(=O)CN(C)C(=O)CN(C)C(=O)CN(C)C(=O)CN(C)[*:1]; TATA = O=C(CC[*:1])N1CN(C(=O)CC[*:2])CN(C(=O)CC[*:3])C1; Hyp = O=C(O)[C@@H]1C[C@@H](O)CN1; hArg = N=C(N)NCCCC[C@H](N)C(=O)O; βAla = NCCC(=O)O
Molecular target: T1, Rat EphA2, biotinylated (in house) (Rat)
T1 construct: SPR target captured on streptavidin; also called Rat EphA2 (SPR)
T1 sequence (Q03145 other isoform, or with tags, fused parts or gaps): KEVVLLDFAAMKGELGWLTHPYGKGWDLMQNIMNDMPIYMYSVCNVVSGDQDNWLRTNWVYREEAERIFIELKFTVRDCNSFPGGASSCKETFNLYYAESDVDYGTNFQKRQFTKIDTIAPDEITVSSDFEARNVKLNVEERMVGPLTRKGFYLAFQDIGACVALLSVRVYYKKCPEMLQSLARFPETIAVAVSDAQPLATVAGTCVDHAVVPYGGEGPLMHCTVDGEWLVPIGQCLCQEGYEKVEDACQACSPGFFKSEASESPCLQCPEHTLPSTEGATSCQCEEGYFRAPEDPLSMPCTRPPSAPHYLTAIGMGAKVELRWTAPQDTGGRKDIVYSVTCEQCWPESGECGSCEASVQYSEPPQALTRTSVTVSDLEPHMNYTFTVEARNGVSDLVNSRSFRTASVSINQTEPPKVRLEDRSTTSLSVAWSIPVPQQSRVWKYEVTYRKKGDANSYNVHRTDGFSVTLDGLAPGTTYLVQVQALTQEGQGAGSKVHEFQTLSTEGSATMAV
Experiment: SPR (Biacore 3000), biotinylated rat EphA2 on streptavidin, 1:1 model

Binder | Kd [nM] | t1/2 [min]
[βAla][Sar10″]A[hArg]DC[Hyp]LVNPLCLHP[dD]W[hArg]C-NH2 (linker 6-13-20 via TATA (inferred); also: conjugated to ValCit-MMAE linker/toxin, attachment site not given here, also called BT5528) [BCY6136] | 2.96 | 12.6
[βAla][Sar10″]A[hArg]DC[Hyp]LVNPLCLHP[dD]W[hArg]C-NH2 (linker 6-13-20 via TATA (inferred); also: conjugated to DM1-SS(SO3H)- linker/toxin, attachment site not given here) [BCY6173] | 1.1 | 12
